Measurements from article PMC12386367, “Importin α3 Is Tolerant to Nuclear Localization Signal Chirality” (International Journal of Molecular Sciences, 2025).
Where two headings read alike, the source gives them in different places. Non-standard residues stand in square brackets, D forms with d.

B1: D-enantiomeric, isolated NLS region of NUPR1L (residues 51–74 of the intact protein) (peptide)
peptide: Ac-[dR][dT][dR][dR][dE][dQ][dA][dL][dR][dT][dN][dW][dP][dA][dP]GG[dH][dE][dR][dK][dV][dA][dQ]-NH2
SMILES: CC(=O)N[C@H](CCCNC(=N)N)C(=O)N[C@@H](C(=O)N[C@H](CCCNC(=N)N)C(=O)N[C@H](CCCNC(=N)N)C(=O)N[C@H](CCC(=O)O)C(=O)N[C@H](CCC(N)=O)C(=O)N[C@H](C)C(=O)N[C@H](CC(C)C)C(=O)N[C@H](CCCNC(=N)N)C(=O)N[C@@H](C(=O)N[C@H](CC(N)=O)C(=O)N[C@H](Cc1c[nH]c2ccccc12)C(=O)N1CCC[C@@H]1C(=O)N[C@H](C)C(=O)N1CCC[C@@H]1C(=O)NCC(=O)NCC(=O)N[C@H](Cc1c[nH]cn1)C(=O)N[C@H](CCC(=O)O)C(=O)N[C@H](CCCNC(=N)N)C(=O)N[C@H](CCCCN)C(=O)N[C@@H](C(=O)N[C@H](C)C(=O)N[C@H](CCC(N)=O)C(N)=O)C(C)C)[C@H](C)O)[C@H](C)O
notes: NLS region of NUPR1L (paralogue of NUPR1), residues 51-74 of the intact protein, made of D-amino acids; also called D-NLS-NUPR1L; source: synthetic peptide (Genscript, purity higher than 95%)
B2: D-enantiomeric, isolated, non-canonical NLS of PADI4 (peptide)
peptide: Ac-[dK][dL][dF][dQ][dE][dQ][dQ][dN][dE]G[dH]G[dE][dA][dL][dL][dF][dE]G[dI][dK][dK][dK][dK][dQ][dQ][dK][dI]-NH2
SMILES: CC[C@@H](C)[C@@H](NC(=O)[C@@H](CCCCN)NC(=O)[C@@H](CCC(N)=O)NC(=O)[C@@H](CCC(N)=O)NC(=O)[C@@H](CCCCN)NC(=O)[C@@H](CCCCN)NC(=O)[C@@H](CCCCN)NC(=O)[C@@H](CCCCN)NC(=O)[C@H](NC(=O)CNC(=O)[C@@H](CCC(=O)O)NC(=O)[C@@H](Cc1ccccc1)NC(=O)[C@@H](CC(C)C)NC(=O)[C@@H](CC(C)C)NC(=O)[C@@H](C)NC(=O)[C@@H](CCC(=O)O)NC(=O)CNC(=O)[C@@H](Cc1c[nH]cn1)NC(=O)CNC(=O)[C@@H](CCC(=O)O)NC(=O)[C@@H](CC(N)=O)NC(=O)[C@@H](CCC(N)=O)NC(=O)[C@@H](CCC(N)=O)NC(=O)[C@@H](CCC(=O)O)NC(=O)[C@@H](CCC(N)=O)NC(=O)[C@@H](Cc1ccccc1)NC(=O)[C@@H](CC(C)C)NC(=O)[C@@H](CCCCN)NC(C)=O)[C@H](C)CC)C(N)=O
notes: second predicted (non-canonical) NLS region of PADI4 (protein arginine deiminase 4), residues 499-526 of the intact protein, made of D-amino acids; Mirror-image (all-D) peptide; also called D-NLS-PADI; D-form of NLS2-PADI4; source: synthetic peptide (Genscript, purity higher than 95%)

Key:
[1] = target: L-NLS-NUPR1phospho NLS (Homo sapiens) (UniProt O60356); settings: cited from earlier work
[2] = target: L-NLS-NUPR1 NLS (Homo sapiens) (UniProt O60356); settings: cited from earlier work
[3] = target: L-NLS-PADI NLS (Homo sapiens) (UniProt Q9UM07); assay: ITC; settings: cited from earlier work
[4] = target: L-NLS-NUPR1L NLS (Homo sapiens) (UniProt A6NF83); assay: fluorescence; settings: cited from earlier work
Chain of L-NLS-NUPR1L NLS (Homo sapiens) (A6NF83 60-80): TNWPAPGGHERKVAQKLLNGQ

[5] = target: L-NLS-PADI NLS (Homo sapiens) (UniProt Q9UM07); assay: fluorescence; settings: cited from earlier work
[6] = target: L-NLS-NUPR1 (Homo sapiens) (UniProt O60356); assay: ITC; settings: cited from earlier work
Chain of L-NLS-NUPR1 (Homo sapiens) (O60356 54-74): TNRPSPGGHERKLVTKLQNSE

[7] = target: L-NLS-NUPR1phospho (Homo sapiens) (UniProt O60356); assay: ITC; settings: cited from earlier work
[8] = target: L-NLS-PADI (NLS2-PADI4) (Homo sapiens) (UniProt Q9UM07); assay: ITC; settings: cited from earlier work
Chain of L-NLS-PADI (NLS2-PADI4) (Homo sapiens) (Q9UM07 498-526): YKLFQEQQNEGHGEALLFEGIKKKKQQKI

[9] = target: L-NLS-NUPR1L (Homo sapiens) (UniProt A6NF83); assay: fluorescence; settings: cited from earlier work
Chain of L-NLS-NUPR1L (Homo sapiens) (A6NF83 51-74): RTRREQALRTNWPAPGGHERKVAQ

[10] = target: L-NLS-PADI (NLS2-PADI4) (Homo sapiens) (UniProt Q9UM07); assay: fluorescence; settings: cited from earlier work
[11] = target: L-NLS-NUPR1phospho NLS (Homo sapiens) (UniProt O60356); settings: cited from earlier work; remark: listed apart in the source
[12] = target: L-NLS-NUPR1 NLS (Homo sapiens) (UniProt O60356); settings: cited from earlier work; remark: listed apart in the source
[13] = target: L-NLS-NUPR1L NLS (Homo sapiens) (UniProt A6NF83); assay: ITC; settings: cited from earlier work
[14] = target: L-NLS-NUPR1L (Homo sapiens) (UniProt A6NF83); assay: ITC; settings: cited from earlier work
[15] = target: T1, Human importin α3 isoform (residues 1–521) (human, UniProt O00629 1-521); assay: ITC; importin species (15 µM in protomer units) in the cell, D-NLS peptide (150–200 µM) in the syringe; Tris buffer 50 mM, pH 8.0; 25 °C; single set of binding sites; settings: both partners purified
T1 construct: human importin α3 (Impα3, KPNA4), residues 1-521, intact protein with the N-terminal IBB domain; The materials list Ni2+-resin, ampicillin and IPTG, so expression in E. coli is surmised; also called Impα3; KPNA4
T1 sequence (looked up): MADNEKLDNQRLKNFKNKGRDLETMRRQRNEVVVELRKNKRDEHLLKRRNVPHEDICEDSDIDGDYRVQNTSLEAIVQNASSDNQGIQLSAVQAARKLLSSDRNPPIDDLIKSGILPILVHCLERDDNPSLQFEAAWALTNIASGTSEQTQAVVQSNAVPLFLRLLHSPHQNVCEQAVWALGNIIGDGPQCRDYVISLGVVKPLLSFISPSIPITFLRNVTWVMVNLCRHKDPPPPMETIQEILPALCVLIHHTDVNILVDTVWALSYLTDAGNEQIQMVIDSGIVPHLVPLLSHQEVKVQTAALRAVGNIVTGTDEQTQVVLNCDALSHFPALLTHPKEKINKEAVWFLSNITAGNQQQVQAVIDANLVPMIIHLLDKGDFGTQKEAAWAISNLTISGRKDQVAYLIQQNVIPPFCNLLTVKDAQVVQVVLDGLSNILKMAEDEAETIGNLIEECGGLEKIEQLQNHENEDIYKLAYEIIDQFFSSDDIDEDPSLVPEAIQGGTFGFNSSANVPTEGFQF

[16] = target: T2, IBB-depleted species of Impα3 (residues 64–521 of the intact protein) (human, UniProt O00629 64-521); assay: as above; settings: both partners purified
T2 construct: PDB 5XZX was used only as the model of ∆Impα3 for docking; its limits may differ from 64-521; also called ΔImpα3; truncated importin species
T2 sequence (looked up): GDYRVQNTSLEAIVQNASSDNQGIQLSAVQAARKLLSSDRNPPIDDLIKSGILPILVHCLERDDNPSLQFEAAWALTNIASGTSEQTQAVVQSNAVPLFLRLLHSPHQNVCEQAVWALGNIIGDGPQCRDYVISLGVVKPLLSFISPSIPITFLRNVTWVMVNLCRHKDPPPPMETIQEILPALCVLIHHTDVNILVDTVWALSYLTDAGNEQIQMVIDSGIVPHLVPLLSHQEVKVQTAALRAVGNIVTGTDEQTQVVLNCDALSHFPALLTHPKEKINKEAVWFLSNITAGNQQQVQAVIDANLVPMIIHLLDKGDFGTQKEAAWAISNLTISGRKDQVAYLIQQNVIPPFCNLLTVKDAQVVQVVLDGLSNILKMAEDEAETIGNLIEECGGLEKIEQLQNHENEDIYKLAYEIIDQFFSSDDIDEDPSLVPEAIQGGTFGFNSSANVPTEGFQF

[17] = target: T1, Human importin α3 isoform (residues …); assay: as above; settings: both partners purified; remark: listed apart in the source
[18] = target: T2, IBB-depleted species of Impα3 (residues …); assay: as above; settings: both partners purified; remark: listed apart in the source
[19] = target: T1, Human importin α3 isoform (residues …); assay: BLI; His-tagged Impα3 or ∆Impα3 immobilised on His-tag biosensors at 0.25 μM; peptides 1 to 10 μM; BLItz system, manufacturer's 10x kinetics buffer; 25 °C; kon and koff from pseudo-first-order plots; apparent Kd = koff/kon, two-state process assumed; settings: both partners purified
[20] = target: T2, IBB-depleted species of Impα3 (residues …); assay: as above; settings: both partners purified
[21] = target: T1, Human importin α3 isoform (residues …); assay: other fluorescence titration; intrinsic fluorescence, excitation at 280 or 295 nm; Impα3 or ∆Impα3 fixed at 3 μM (protomer units), peptide 0–35 μM; 50 mM Tris pH 8.0; 25 °C; settings: both partners purified
[22] = target: T2, IBB-depleted species of Impα3 (residues …); assay: as above; settings: both partners purified

| Molecule | Kd [3] | Kd [5] | Kd [6] | Kd [7] | Kd [8] | Kd [10] | Kd [19] | koff [19] | kon [19] | Kd [20] | koff [20] | kon [20] | also measured |
| --- | --- | --- | --- | --- | --- | --- | --- | --- | --- | --- | --- | --- | --- |
| Importin α3 (from UniProt O00629) | 23 µM | 4 µM |  |  |  |  |  |  |  |  |  |  | Kd [1]: 27 µM; Kd [2]: 1.7 µM; Kd [4]: 3 µM |
| importin α3 (Impα3) 1-521 (from UniProt O00629) |  |  | 1.7 µM | 27 µM | 23 µM | 4 µM |  |  |  |  |  |  | Kd [9]: 3 µM |
| ∆Importin α3 IBB-deleted (from UniProt O00629) | 4.37 µM | 4 µM |  |  |  |  |  |  |  |  |  |  | Kd [11]: 29 µM; Kd [12]: 0.95 µM; Kd [13]: 5.5 µM |
| ∆Impα3 64-521 (from UniProt O00629) |  |  | 0.95 µM | 29 µM | 4.37 µM | 4 µM |  |  |  |  |  |  | Kd [14]: 5.5 µM |
| B1 |  |  |  |  |  |  | 1 µM | 0.069 s⁻¹ | 68000 M⁻¹ s⁻¹ | 0.7 µM | 0.038 s⁻¹ | 51200 M⁻¹ s⁻¹ | dH [15]: -2.5 ± 0.2 kcal/mol; dH [16]: -4.5 ± 0.7 kcal/mol; Kd [17]: 2.7 ± 0.6 µM; Kd [18]: 5 ± 1 µM |
| B2 |  |  |  |  |  |  | 15 µM | 0.6 s⁻¹ | 45000 M⁻¹ s⁻¹ | 6 µM | 0.37 s⁻¹ | 60000 M⁻¹ s⁻¹ | Kd [21]: 12 ± 5 µM; Kd [22]: 16 ± 11 µM |
